Data reported in EP4631972A1, “SITE-SPECIFIC COUPLED PEGYLATED INTERLEUKIN-2 MUTANT WITH RECEPTOR AFFINITY PREFERENCE AND USE THEREOF” (priority 2022, dated 2024).

Key:
IL-2αβγ triple receptor = target: T1, IL-2αβγ triple receptor (Homo sapiens, UniProt P01589+P14784+P31785); test: STAT5 reporter gene assay, activation of IL-2αβγ triple receptor in 293EC18/αβγ/JAK3/STAT5 cells; assay type: cell-based; conditions: Example 4, Figure 6, 80k PEG
T1 construct: Uniprot P01589 1Met-551Ile constructed into plasmid pcDNA3.1/zeo; Uniprot P14784 1Met-551Val constructed into plasmid pcDNA3.1(+); Uniprot P31785 1Met-551Thr was constructed into plasmid pcDNA3.1/zeo; expressed in transfected cells; host or cells: 293EC18 cells, transient co-transfection with pCMV/JAK3 and PGL4.52/STAT5RE
T1 sequence (P01589 22-272): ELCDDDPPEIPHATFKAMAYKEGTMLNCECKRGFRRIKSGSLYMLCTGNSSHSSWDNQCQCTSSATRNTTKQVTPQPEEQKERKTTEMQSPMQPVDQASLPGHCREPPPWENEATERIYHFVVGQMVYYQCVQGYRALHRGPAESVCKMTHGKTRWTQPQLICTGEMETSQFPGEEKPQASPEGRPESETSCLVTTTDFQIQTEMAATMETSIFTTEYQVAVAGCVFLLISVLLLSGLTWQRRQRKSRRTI
T1 sequence (P14784 27-551): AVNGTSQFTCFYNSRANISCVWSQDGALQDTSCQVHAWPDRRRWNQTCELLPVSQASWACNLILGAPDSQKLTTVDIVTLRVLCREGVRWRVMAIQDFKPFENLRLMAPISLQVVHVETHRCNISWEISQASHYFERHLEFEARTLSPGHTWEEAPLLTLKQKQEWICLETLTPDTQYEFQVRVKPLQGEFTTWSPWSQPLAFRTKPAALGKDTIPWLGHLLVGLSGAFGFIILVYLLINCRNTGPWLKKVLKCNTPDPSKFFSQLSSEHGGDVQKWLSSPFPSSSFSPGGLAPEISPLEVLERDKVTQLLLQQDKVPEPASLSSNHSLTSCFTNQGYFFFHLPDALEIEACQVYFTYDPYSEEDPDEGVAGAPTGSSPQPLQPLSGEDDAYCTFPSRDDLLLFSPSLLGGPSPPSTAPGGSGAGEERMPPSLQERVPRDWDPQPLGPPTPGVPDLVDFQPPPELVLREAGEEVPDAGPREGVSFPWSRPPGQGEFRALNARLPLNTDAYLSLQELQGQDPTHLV
T1 sequence (P31785 23-369): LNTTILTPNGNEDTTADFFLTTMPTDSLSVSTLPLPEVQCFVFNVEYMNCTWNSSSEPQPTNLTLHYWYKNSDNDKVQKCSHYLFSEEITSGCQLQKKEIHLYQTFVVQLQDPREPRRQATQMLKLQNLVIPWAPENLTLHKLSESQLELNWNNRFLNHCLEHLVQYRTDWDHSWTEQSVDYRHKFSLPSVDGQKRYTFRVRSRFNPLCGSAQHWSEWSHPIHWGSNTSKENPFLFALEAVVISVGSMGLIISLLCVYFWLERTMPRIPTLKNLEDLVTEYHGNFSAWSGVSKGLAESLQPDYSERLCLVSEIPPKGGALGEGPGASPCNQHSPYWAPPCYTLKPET
Description: Since the binding of IL-2 to the β and γ subunits of its receptor induces STAT5 phosphorylation, which subsequently leads to dimerization and translocation into the nucleus to promote target gene transcription, this example evaluates the ability of the mutant IL-2 polypeptides to induce signaling through the IL-2 receptor by measuring STAT5 phosphorylation.
Adherent 293EC18 cells were cultured to about 90% confluence using conventional methods. After trypsin digestion, the cells were resuspended in cell culture medium to 4×10^5 cells/ml and 50 µl/well were added to two 96-well cell culture plates. After incubation at 37°C for 48 h, the supernatant was aspirated and fresh culture medium was added. […]
Each IL2 mutant was diluted 4-fold in a gradient manner using PBS buffer, with a total of 11 dilutions and a starting concentration of 65.2 nM. […] Bio-Lite Luciferase Assay System reagents that have been mixed and equilibrated to room temperature were added to the cell culture plates to be tested at 100 µl/well, placed on a microplate shaker at 450 rpm to mix for 2 minutes, then allowed to stand at room temperature for 3 minutes, and the chemiluminescence value was detected with an enzyme plate reader.
The logarithm of the final concentration of each IL-2 mutant sample was used as the X-axis, and the chemiluminescence detection results were used as the Y-axis for plotting. Data were analyzed using the four-parameter logistic regression model in GraphPad Prism 9. Table 2 EC50 values for the activation of the IL-2αβγ triple receptor by PEG-IL-2 mutants as determined by a reporter gene assay.
According to the method of Example 3, each polyethylene glycol-modified mutant obtained in this example was assessed for the binding preference to the IL2 receptors by a reporter assay. Table 4 EC50 values for the activation of the IL-2αβγ triple receptor by PEG-IL-2 mutants as determined by a reporter gene assay. […]

[1] = Effects on body weight and physiological characteristics of mice; conditions: 1 mg/kg s.c. once every three days, three times
Description: SPF grade Balb/c mice were purchased, with 3 mice in each group. Administration was started on the day of grouping. The test substance or PBS (negative control group) was administered subcutaneously at a dose of 1 mg/kg, once every three days, for a total of three times. The mice were weighed before each administration and three days after the third administration .

B1: 80K-1PEG-IL2-N88R-N77C: IL-2 mutant N88R, N77C, conjugation site 77, PEG molecular weight 80kD (conjugate)
chain: APTSSSTKKTQLQLEHLLLDLQMILNGINNYKNPKLTRMLTFKFYMPKKATELKHLQCLEEELKPLEEVLNLAQSKC(PEG 80 kDa)FHLRPRDLISRINVIVLELKGSETTFMCEYADETATIVEFLNRWITFSQSIISTLT
- activation activity on the IL-2Rαβγ triple receptor compared with 80K-1PEG-IL2-N88R-D109C (IL-2αβγ triple receptor): slightly higher activation activity
- toxic side effects on mice [1]: less toxic side effects
- visual observation of the mice [1]: in good condition
- body weight compared with negative control ([1]; three days after the third dose): not significantly different from that of the negative control
